Results on 3 substances are retold here after article PMC7170535.

For experiment [1], the target named is recombinant inter-α-inhibitor heavy chain 1 (rHC1), wild type (human) (UniProt P19827). As to the kind of experiment: SPR; 1,500 RU rHC1 proteins immobilised on a C1 chip by amide cross-linking; ligand as analyte; HEPES-buffered saline pH 7.5, 0.05% Tween 20, 10 mM EDTA; 50 μl/min; multicycle kinetics, 1:1 Langmuir.
The target is the same in experiment [2]. Description: SPR; 1,500 RU rHC1 proteins immobilised on a C1 chip by amide cross-linking; ligand as analyte; HEPES-buffered saline pH 7.5, 0.05% Tween 20, 2 mM Mg2+, 2 mM Mn2+; 50 μl/min; multicycle kinetics, 1:1 Langmuir. (SPR reads the build-up and loss of mass on a sensor chip optically.)
Experiment [3] deals with recombinant inter-α-inhibitor heavy chain 1 (rHC1), D298A MIDAS mutant (human) (UniProt P19827). The description is as above.
The target of experiment [4] is complement C3 (human). As to the kind of experiment: SPR; ~2,000 RU C3 immobilised on a CM5 chip by amide coupling; rHC1 or IαI as analyte; HEPES-buffered saline pH 7.5, 0.05% Tween 20, 2 mM Mg2+, 2 mM Mn2+; multicycle kinetics, 1:1 Langmuir.

Sequence of recombinant inter-α-inhibitor heavy chain 1 (rHC1), wild type (human) (P19827 35-672): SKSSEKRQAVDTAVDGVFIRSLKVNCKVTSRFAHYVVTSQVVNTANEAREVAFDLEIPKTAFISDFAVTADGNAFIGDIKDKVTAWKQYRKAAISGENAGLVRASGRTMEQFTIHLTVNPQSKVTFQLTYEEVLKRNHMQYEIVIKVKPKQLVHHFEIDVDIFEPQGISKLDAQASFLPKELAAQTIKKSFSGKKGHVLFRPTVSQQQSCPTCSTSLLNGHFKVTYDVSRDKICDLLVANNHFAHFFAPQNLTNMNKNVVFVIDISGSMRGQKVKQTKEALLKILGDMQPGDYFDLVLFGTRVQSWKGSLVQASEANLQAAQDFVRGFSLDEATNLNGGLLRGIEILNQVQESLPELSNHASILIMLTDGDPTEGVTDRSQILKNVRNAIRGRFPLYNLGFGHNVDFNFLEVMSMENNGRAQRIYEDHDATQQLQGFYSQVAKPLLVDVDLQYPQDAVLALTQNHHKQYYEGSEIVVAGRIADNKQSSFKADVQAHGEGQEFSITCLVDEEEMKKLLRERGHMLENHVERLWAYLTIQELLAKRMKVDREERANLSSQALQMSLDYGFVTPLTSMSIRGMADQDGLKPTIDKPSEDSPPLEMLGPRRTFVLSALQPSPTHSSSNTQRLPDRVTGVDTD
Sequence of LTBP1 N-terminal region (NT1), recombinant domain (domain or fragment) (Q14766 24-1721): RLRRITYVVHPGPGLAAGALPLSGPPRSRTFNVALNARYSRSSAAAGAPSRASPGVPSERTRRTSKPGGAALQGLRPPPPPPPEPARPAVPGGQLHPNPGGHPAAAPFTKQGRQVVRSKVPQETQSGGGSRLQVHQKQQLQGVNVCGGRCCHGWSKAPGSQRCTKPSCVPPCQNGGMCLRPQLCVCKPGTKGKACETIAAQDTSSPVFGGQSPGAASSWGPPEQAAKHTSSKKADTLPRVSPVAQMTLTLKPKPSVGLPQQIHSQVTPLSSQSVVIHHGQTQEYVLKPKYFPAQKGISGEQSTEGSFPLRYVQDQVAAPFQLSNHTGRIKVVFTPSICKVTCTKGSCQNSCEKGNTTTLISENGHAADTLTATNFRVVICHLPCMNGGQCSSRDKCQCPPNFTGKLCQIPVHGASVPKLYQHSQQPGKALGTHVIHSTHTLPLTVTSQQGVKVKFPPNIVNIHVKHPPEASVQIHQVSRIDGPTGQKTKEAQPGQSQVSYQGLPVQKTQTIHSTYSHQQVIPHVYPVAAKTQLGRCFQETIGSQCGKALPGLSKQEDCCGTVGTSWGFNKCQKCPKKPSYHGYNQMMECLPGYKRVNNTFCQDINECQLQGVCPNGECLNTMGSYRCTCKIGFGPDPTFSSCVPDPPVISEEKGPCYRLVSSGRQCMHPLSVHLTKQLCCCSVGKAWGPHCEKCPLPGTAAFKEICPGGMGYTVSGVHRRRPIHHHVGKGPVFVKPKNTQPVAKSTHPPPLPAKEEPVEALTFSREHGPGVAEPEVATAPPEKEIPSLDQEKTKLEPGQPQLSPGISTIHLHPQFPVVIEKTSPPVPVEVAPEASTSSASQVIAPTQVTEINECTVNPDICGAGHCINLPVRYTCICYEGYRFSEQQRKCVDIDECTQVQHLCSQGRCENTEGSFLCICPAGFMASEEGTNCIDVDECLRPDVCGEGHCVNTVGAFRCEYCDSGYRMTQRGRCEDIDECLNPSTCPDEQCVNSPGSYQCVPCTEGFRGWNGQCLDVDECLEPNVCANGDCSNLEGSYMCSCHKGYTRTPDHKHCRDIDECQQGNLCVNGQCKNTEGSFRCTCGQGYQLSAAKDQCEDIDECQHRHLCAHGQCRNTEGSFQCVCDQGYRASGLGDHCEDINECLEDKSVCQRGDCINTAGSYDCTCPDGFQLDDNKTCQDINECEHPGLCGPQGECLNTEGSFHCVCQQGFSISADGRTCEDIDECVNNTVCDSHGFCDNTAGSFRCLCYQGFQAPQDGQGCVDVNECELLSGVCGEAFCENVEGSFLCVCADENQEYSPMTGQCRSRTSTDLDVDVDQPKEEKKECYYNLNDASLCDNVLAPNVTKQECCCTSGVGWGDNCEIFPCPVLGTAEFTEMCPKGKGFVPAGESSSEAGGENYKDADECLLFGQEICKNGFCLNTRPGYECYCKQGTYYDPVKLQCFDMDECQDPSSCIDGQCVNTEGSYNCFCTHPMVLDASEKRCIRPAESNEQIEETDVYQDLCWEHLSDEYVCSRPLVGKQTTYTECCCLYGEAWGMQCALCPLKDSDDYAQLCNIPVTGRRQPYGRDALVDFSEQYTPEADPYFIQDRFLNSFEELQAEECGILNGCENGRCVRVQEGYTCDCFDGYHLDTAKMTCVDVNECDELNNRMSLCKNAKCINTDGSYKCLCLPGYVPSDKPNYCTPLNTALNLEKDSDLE
Sequence of recombinant inter-α-inhibitor heavy chain 1 (rHC1), D298A MIDAS mutant (human) (P19827 35-672 D298A): as the sequence (P19827 35-672) above, with D264A counted along it

As for “LTBP1 N-terminal region (NT1), recombinant domain (domain or fragment)”, the Kd is 5.1 nM in experiment [1] and 4.6 nM in experiment [2].

As to “TGFβ1-LAP, small latent complex of TGFβ1 (from UniProt P01137 30-278)”, the dissociation constant Kd in experiment [3] amounted to 14.9 nM; in experiment [2], 16.1 nM.

For the substance “inter-α-inhibitor (IαI) (from UniProt P19827 35-672; P19823 55-702) (complex)”, the dissociation constant Kd in experiment [4] amounted to 659 nM.

Usually Kd stands for the free concentration of one partner at which half of the binding sites on the other are occupied at equilibrium, for simple one-to-one binding.
